The text below walks through data of patent US10821189B2, “CD38 ligand-drug conjugates for targeted cancer therapy” (THE METHODIST HOSPITAL SYSTEM, priority 2015, dated 2020).

Series [1] concerns orthotopic MM tumors (RPMI8226GL). As to the kind of experiment: Orthotopic MM xenograft mouse model. The format is in vivo, NOD/SCID IL2rg−/− mice. The conditions noted are these: 0.5 mg/kg Dox, every other day, 13 treatments, observed up to 60 days. How it is done: 0.5×10^6 RPMI8226 GL cells were inoculated bilaterally into tibiae of 8- to 10-week-old NOD/SCID IL2rg−/− mice. Engraftment was monitored by weekly whole-body bioluminescence imaging on Xenogen IVIS imaging system, as previously reported (Wen, J., Feng, Y, Bjorklund, C. C., Wang, M., Orlowski, R. Z., Shi, Z. Z., Liao, B., O'Hare, J., Zu, Y, Schally, A. V., et al. 2011. Luteinizing Hormone-Releasing Hormone (LHRH)-I antagonist cetrorelix inhibits myeloma cell growth in vitro and in vivo. Mol Cancer Ther 10:148-158). Starting with day 6, mice were treated with free DOX (0.5 mg/kg) or an equivalent ApDC amount (6 mice per group) every other day (13 treatments total). Treatments were administered via the tail vein injection. Bioluminescence intensities representative of tumor mass were quantified by Living Image 3.1. Mice were euthanized by CO2 as they became moribund and their survival curves were plotted with SPSS 10 statistical software (SPSS Inc., Chicago, Ill., USA). All experiments were approved by the IACUC of the Houston Methodist Research Institute. Cells isolated from tumor tissues were examined under a fluorescence microscope for GFP expression. […]

The nature of series [2]: DNase I digestion, release of free DOX. Format: physicochemical.
Series [3] concerns control cells (HDLM2). As to the kind of experiment: Intracellular DOX delivery by confocal microscopy, control cells. Format: cell-based. The note with it: HDLM2, 2 h treatment, equal molar DOX. As for the experimental part:
(§1) CD38+ MM and CD38− non-MM cells were incubated with free DOX (0.5 μmol/L final concentration) or ApDC (final equivalent concentration of aptamer was 0.1 μmol/L and DOX—0.5 μmol/L) for 1 hour. After washing, cells were resuspended with fresh medium, cultured for 2 hours, and then examined under a 40× objective (Olympus FV 1000 confocal microscope). DOX fluorescence was excited with a 5 mW, 488 nm Ar+ laser.

A further series has as its system MM cells (RPMI8226). As to the kind of experiment: Intracellular DOX delivery by confocal microscopy, MM cells. The format is cell-based, Human. The conditions noted are these: RPMI8226, 2 h treatment, equal molar DOX. How it is done: as §1
Series [4] is described as follows: Aptamer biostability in human serum, gel electrophoresis. The format is in vitro ADME. The conditions noted are these: human serum at 37° C. As for the experimental part: (§2) In vitro biostability of Aptamer#1S was evaluated as previously described (49). In brief, the aptamer was incubated with human serum (Atlanta Biologicals) for 24 hours, and samples were collected at different times using phenol-chloroform extraction. The amount of undigested aptamer was visualized on a 5% agarose gel. In vivo experiments were done in accordance with the institutional guidelines for the use of laboratory animals. To determine the in vivo biostability of Aptamer#1S, 2×10^6 RPMI8226GL and K299GL cells were inoculated subcutaneously into 8- to 10-week-old NOD/SCID IL2rg−/− mice (Jackson Laboratory, Bar Harbor, Me.). Tumor growth was monitored by weekly whole-body bioluminescence imaging using Xenogen IVIS imaging system (PerkinElmer, Waltham, Mass.). Once tumors formed, 5 ng Cy5.5-labeled APTAMER#1S dissolved in PBS was injected via the tail vein and its signal was monitored on the IVIS system.

Series [5] deals with xenograft tumors of MM (RPMI8226GL). As to the kind of experiment: Whole body fluorescent imaging of Cy5.5-labeled aptamer, MM tumor. Format: in vivo, NOD/SCID IL2rg−/− mice. How it is done: as §2
For another series, the system named is cultured MM cells (MM1S). As to the kind of experiment: Fluorescence microscopy of a cell mixture stained with Cy3-labeled aptamer, MM cells. The format is cell-based, Human. As for the experimental part:
(§3) For aptamer staining, cells were stained with Cy3-labeled aptamer at 50 nmol/L (for flow cytometry analysis) or 100 nmol/L (for fluorescence microscopy, Olympus America, Melville, N.Y.) for 30 minutes. For 5(6)-Carboxyfluorescein diacetate N-hydroxysuccinimidyl ester (CFSE, Abcam, Cambridge, Mass.) staining, CD38-control cells were pre-stained with 0.5 μmol/L CFSE for 15 minutes according to the manufacturer's specifications and mixed with unlabeled CD38+MM cells, followed by Cy3-labeled aptamer staining for 30 minutes. For antibody staining, cultured cells or mononuclear cells freshly isolated from MM patient bone marrow samples were stained with antibody (BioLegend) as specified for 15 minutes.

Series [6] has as its system xenograft tumors of lymphoma (K299GL). As to the kind of experiment: Whole body fluorescent imaging of Cy5.5-labeled aptamer, control tumor. Format: in vivo, NOD/SCID IL2rg−/− mice. The conditions noted are these: control tumor in the same mouse. As for the experimental part:
as §2

Series [7] has as its system control cells (HDLM2). Put plainly: Cell binding assay of Cy3-labeled aptamers by flow cytometry, CD38-negative control cells.
Excerpt: (§4) The top-20 enriched aptamer sequences were synthesized to include Cy3 modification and their affinity and specificity analyzed by flow cytometry. Aptamer#1S was derived by truncating Aptamer#1 based on ValFold software structural prediction (VALWAY Technology Center, NEC Soft Ltd., Tokyo, Japan) (Navani, N. K., Mok, W. K., and Yingfu, L. 2009. In vitro selection of protein-binding DNA aptamers as ligands for biosensing applications. Methods Mol Biol 504:399-415).
as §3
(In general: A flow cytometer gives signals particle by particle.)

The test system of series [8] is CD38 negative control cells (HDLM2). As to the kind of experiment: Fluorescence microscopy of a cell mixture stained with Cy3-labeled aptamer, control cells. Format: cell-based. The note with it: control cells pre-stained in green. How it is done: as §3
Series [9] in a line: DOX loading capacity by quenching of DOX fluorescence. Format: physicochemical. The conditions noted are these: components alone, FIG. 3C. How it is done:
DOX was purchased from Thermo Fisher Scientific. Since DOX preferentially binds to double-stranded 5′-GC-3′ or 5′-CG-3′ repeats (Meng, L., Yang, L., Zhao, X., Zhang, L., Zhu, H., Liu, C., and Tan, W. 2012. Targeted delivery of chemotherapy agents using a liver cancer-specific aptamer. PLoS One 7:e33434), CG repeats were added to the 5′ end of Aptamer#1S to make the modified Aptamer#1S/CG-Cargo sequence. To determine the optimal molar ratio of aptamer to DOX, Apamer#1S/CG-Cargo sequence was heated at 95° C. for 5 minutes, cooled immediately on ice for 15 minutes, and then incubated with a fixed concentration of DOX (final concentration of DOX was 0.5 μmol/L) at various aptamer/DOX ratios ranging from 1:100 to 1:0.5. After 1 hour, the fluorescence (λEx=[…], λEm=[…]) was measured with a Synergy4 analyzer (BioTek, Winooski, Vt.). The minimal ratio at which the fluorescence of DOX was quenched to the maximal extent was determined as the optimal molar ratio (1:5 of aptamer to DOX) (29).

The next series concerns MM cells (MM1S). As to the kind of experiment: Cell binding assay of Cy3-labeled aptamers by flow cytometry, CD38+ MM cells. On the set-up: species or system Human. The conditions noted are these: Cy3-labeled aptamer.
Excerpt: as §4, §3

Series [10] relates to CD38+ (RPMI8226 and NCI-H929) and CD38− (K299 and Jeko1) cell lines. As to the kind of experiment: Cell binding in additional CD38+ and CD38− cell lines. As for the experimental part:
as §3

For series [11], the target named is T1, cellular CD38 proteins from MM cells (MM1S) (Homo sapiens, UniProt P28907).
T1 construct: cells were lysed in radioimmunoprecipitation assay (RIPA) buffer; endogenous in cells; host or cells: MM1S (CD38+ myeloma cell line), RIPA lysate
T1 sequence (P28907 1-300): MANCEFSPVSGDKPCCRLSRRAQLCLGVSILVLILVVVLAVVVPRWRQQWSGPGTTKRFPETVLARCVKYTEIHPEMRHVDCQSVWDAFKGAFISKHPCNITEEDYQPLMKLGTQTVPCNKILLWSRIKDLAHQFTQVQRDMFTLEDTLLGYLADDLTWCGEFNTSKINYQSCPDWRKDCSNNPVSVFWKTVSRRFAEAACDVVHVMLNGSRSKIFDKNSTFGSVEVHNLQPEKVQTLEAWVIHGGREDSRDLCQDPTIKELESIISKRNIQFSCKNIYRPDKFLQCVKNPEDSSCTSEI
As to the kind of experiment: Precipitation of cell lysate proteins with biotin-labeled aptamers, western blot with anti-CD38 antibody. Format: binding. The conditions noted are these: MM1S lysates. As for the experimental part: Immunoprecipitation with biotin-labeled aptamers was performed as previously reported (Shi, F., Cheng, Y. F., Wang, X. L., and Edge, A. S. 2010. Beta-catenin up-regulates Atohl expression in neural progenitor cells by interaction with an Atohl 3′ enhancer. J Biol Chem 285:392-400). In brief, cells were lysed in radioimmunoprecipitation assay (RIPA) buffer supplemented with Halt protease and phosphatase inhibitor cocktail (Thermo Fisher Scientific). Biotin-labeled aptamers were incubated with lysates for 2 hours at 4° C. in SELEX binding buffer supplemented with Halt protease and phosphatase inhibitor cocktail. Aptamer-bound proteins were collected with streptavidin agarose resin (Thermo Fisher Scientific) following 1 hour incubation at 4° C. Precipitated proteins were washed 5 times with SELEX washing buffer supplemented with Halt protease and phosphatase inhibitor cocktail, boiled in sample buffer, and supernatants were analyzed by western blotting using an anti-CD38 antibody (Cell Signaling Technology, Danvers, Mass.). […]

As for `COc1cccc2c1C(=O)c1c(O)c3c(c(O)c1C2=O)C[C@@](O)(C(=O)CO)C[C@@H]3O[C@H]1C[C@H](N)[C@H](O)[C@H](C)O1` [free DOX, doxorubicin], the “survival of mice bearing orthotopic MM tumors” value in [1] is “no effect on mouse survival”. For the same molecule, the “fluorescence change after DNase treatment” value in series [2] was “no change”. The “intracellular DOX delivery into control cells” value in the series on control cells (HDLM2) [3] is on record as “non-specific intracellular drug accumulation”. Also, the “intracellular DOX delivery into MM cells” value with MM cells (RPMI8226) is “non-specific intracellular drug accumulation”.

B1: Aptamer#1S: truncated 61-mer of Aptamer#1 inheriting the intact stem-loop structure, SEQ ID NO: 2 (nucleic acid)
DNA: TCCAGAGTGACGCAGCAGCCAACGTGCTTTCTACCTTATTTTCCGTCACTCTCACTCTGGA
modifications: DNA, backbone and methylation of C not given here; further chemistry not fully specified
Take B1: the “time stable in human serum” value in series [4] is ≥ 24 h. Besides, the “accumulation in MM tumor” value in series [5] (Cy5.5-labeled, systemic administration) is reported as “selectively accumulated in MM tumor”. In [5] (post systemic administration), the “duration of specific imaging signals” value is “up to 12 h”. For the same molecule, in the series with cultured MM cells (MM1S) (Cy3-labeled aptamer), the “targeting of MM cells in cell mixture” value is given as “selectively targeted MM cells”. Moreover, the “internalization into MM cells” value in the series with cultured MM cells (MM1S) (intracellular signals) is “internalized into the MM cells”. The “accumulation in control tumor” value in series [6] was “not in control tumor”. In addition, the “binding to control cells (HDLM2)” value with control cells (HDLM2) [7] was “did not react to CD38-negative control cells”. Further, the “reaction with control cells in cell mixture” value in series [8] was “did not react to control cells”. Besides, in series [9], the drug loading capacity result is “very limited drug loading capacity”. The “binding to MM cells (MM1S)” value in the series with MM cells (MM1S) is given as “specifically targeted MM cells”. Further, the “affinity and specificity in additional MM and control cells” value in series [10] was “further confirmed”. Also, in series [11], the “precipitation of cellular CD38 protein” value is “specifically reacted to and immunoprecipitated cellular CD38 proteins”.
